T1: Mouse IL-2 (mouse, UniProt P04351 21-169)
T1 construct: Soluble analyte in SPR; also called mIL-2
T1 sequence (looked up): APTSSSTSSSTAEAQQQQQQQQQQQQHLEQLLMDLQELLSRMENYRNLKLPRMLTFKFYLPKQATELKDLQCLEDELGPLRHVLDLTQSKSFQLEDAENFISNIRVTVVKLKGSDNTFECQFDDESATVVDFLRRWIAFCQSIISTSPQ

T2: Fc-tagged CD122 (extracellular domain) (human, UniProt P14784 27-240)
T2 construct: extracellular domain; Captured on an anti-human Fc chip; also called Fc tagged hCD122; not shown: Fc tag
T2 sequence (looked up): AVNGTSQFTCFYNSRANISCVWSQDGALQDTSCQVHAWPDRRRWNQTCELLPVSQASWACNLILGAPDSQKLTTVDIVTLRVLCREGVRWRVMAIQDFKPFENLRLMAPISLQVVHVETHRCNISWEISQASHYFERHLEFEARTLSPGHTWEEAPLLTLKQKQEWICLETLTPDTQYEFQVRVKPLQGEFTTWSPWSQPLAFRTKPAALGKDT

T3: biotinylated human CD25 (human, UniProt P01589 22-213, limits assumed, biotinylated)
T3 construct: Captured on a streptavidin-coated chip; also called biotinylated hCD25
T3 sequence (looked up): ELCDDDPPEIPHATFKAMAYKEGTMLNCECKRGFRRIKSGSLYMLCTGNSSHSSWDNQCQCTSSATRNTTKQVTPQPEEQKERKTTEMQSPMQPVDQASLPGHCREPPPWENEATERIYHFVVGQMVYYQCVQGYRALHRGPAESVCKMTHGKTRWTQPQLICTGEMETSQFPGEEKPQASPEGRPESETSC


What was measured:
Human IL-2 [1] = target: T4, Human IL-2 (human, UniProt P60568 21-153); test: cell-based or functional assay
Human IL-2 [2] = target: T4, Human IL-2; test: SPR, multi-cycle, antibody captured, hIL-2 analyte
From the text: (§1) The SPR analysis was done on Biacore […] (GE healthcare, USA) on CM5 chips (cat:br10005-30, GE healthcare, USA). The chip was crosslinked with primary capture Ab against human IgG (Cat: br-1008-39, GE healthcare, USA) or primary capture antibody against mouse IgG (Cat: BR-1008-38, GE healthcare, USA) to a target of 8000RU. After cross-linking of the primary Ab, the mouse and human tested antibodies were immobilized on the primary Ab to a target of approximately additional 500RU. […] At the end of each cycle the analyte and tested antibody were stripped from the chip using 3M MgCl₂ and new tested Ab was loaded on the chip as described above. When indicated, instead of stripping the antibodies, kinetics was determined by injecting series of analyte concentrations in one cycle by the Single-cycle kinetics method. Binding kinetics were determined by the 1:1 Binding model using the Biacore T200 evaluation software.

cynomolgus monkey IL-2 = target: T5, cynomolgus monkey IL-2 (cynomolgus monkey, UniProt Q29615 21-154); test: SPR, multi-cycle, antibody captured, cynomolgus IL-2 analyte
T5 construct: also called cIL-2
From the text: as §1

Mouse IL-2 = target: T1, Mouse IL-2; test: no assay described; stated in the methods of the LL/2 tumor model
Human IL-2 [3] = target: T4, Human IL-2; test: SPR (Biacore T200), AU-007 captured on a CM5 chip, h-IL2 as analyte at 0.0625-10 nM, multi-cycle, 1:1 binding model
Protocol: Affinity and epitope binding site was assessed using Surface Plasmon Resonance (SPR). […] Subsequently, soluble hCD25 was injected followed by the injection of soluble hCD122. […] Diagrams represent SPR sensorgram traces of complex formation of IL-2R/Cytokine.
The chip was crosslinked with a human antibody capture kit (BR100839, GE Healthcare, USA) according to the manufacturer's protocol to target 3000-4000 RU. […] Between each cycle, all channels underwent regeneration using 3M MgCl₂. Binding kinetics were determined by the 1:1 Binding model using the Biacore […] evaluation software, version 3.1.

BDG17.053/hIL-2 complex = target: T6, BDG17.053/hIL-2 complex (human, UniProt P60568 21-153); test: SPR, captured antibody saturated with hIL-2, CD25 injected
T6 construct: Captured humanized IgG1 saturated with 50 nM hIL-2 on the SPR chip; also called humanized IgG-hIL-2 complex

[4] = target: T2, Fc-tagged CD122 (extracellular domain); test: SPR, Fc tagged hCD122 captured on a CM5 chip, soluble hCD25 injected
Protocol: Affinity and epitope binding site was assessed using Surface Plasmon Resonance (SPR). […] […] […] Diagrams represent SPR sensorgram traces of complex formation of IL-2R/Cytokine.

biotinylated human CD25 = target: T3, biotinylated human CD25; test: SPR, biotinylated hCD25 on the chip, soluble hCD25 injected as a control
BDG17.023-hIL-2 complex = target: T7, BDG17.023-hIL-2 complex (human, UniProt P60568 21-153); test: SPR, BDG17.023 on CM5 chip saturated with 50 nM hIL-2; 1000 nM CD25 injected after CD122
T7 construct: Non-covalent complex made on the SPR chip: immobilized BDG17.023 IgG1 saturated with 50 nM hIL-2; also called BDG17.023-IL-2 complex

BDG17.038/hIL-2 complex = target: T8, BDG17.038/hIL-2 complex (human, UniProt P60568 21-153); test: SPR, antibody captured on CM5 chip and loaded with 50 nM hIL-2; 1000 nM CD25 injected before CD122
T8 construct: Captured humanized IgG1 saturated with 50 nM hIL-2 on the SPR chip; also called humanized IgG-hIL-2 complex
Protocol: (§2) Subsequently, running buffer was injected for 60 seconds to reach a steady baseline, and then 1000 nM of CD122 was injected for 30 seconds at a flow rate of 30 ul/min. To test CD122 binding, the same experiment was repeated in reverse order, with CD122 injected first flowed by injection of CD25.

BDG17.043/hIL-2 complex = target: T9, BDG17.043/hIL-2 complex (human, UniProt P60568 21-153); test: as above
T9 construct: Captured humanized IgG1 saturated with 50 nM hIL-2 on the SPR chip; also called humanized IgG-hIL-2 complex

BDG17.054/hIL-2 complex = target: T10, BDG17.054/hIL-2 complex (human, UniProt P60568 21-153); test: SPR, antibody captured on CM5 chip and loaded with hIL-2; 1000 nM CD25 injected before CD122 (first set) and after CD122 (second set)
T10 construct: Captured humanized IgG1 saturated with 50 nM hIL-2 on the SPR chip; also called humanized IgG-hIL-2 complex
Protocol: as §2

[5] = target: T11, BDG17.069 (AU-007)/hIL-2 complex (human, UniProt P60568 21-153); test: SPR, AU-007 captured on CM5 chip and loaded with 10nM hIL-2; 1000nM hCD25 injected before hCD122 (1st set) and after hCD122 (2nd set)
T11 construct: On the SPR chip: captured AU-007 saturated with 50 nM hIL-2; In the HEK reporter assay: hIL-2 titrated in the presence of 200 nM AU-007; also called IL2+AU-007; A/IL-2
T11 sequence (P60568 21-153 limits assumed, one chain of several): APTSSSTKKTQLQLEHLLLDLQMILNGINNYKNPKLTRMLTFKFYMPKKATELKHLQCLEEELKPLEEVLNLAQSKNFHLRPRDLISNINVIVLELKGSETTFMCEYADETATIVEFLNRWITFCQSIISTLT

T5 sequence (Q29615 21-154 limits assumed): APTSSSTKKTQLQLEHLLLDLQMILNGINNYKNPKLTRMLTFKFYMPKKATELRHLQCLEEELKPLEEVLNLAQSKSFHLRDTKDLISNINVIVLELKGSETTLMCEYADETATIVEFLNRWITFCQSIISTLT
T4 sequence (P60568 21-153 limits assumed): as the sequence (P60568 21-153 limits assumed, one chain of several) above
T6 sequence (P60568 21-153 limits assumed, one chain of several): as above
T8 sequence (P60568 21-153 limits assumed, one chain of several): as above
T7 sequence (P60568 21-153 limits assumed, one chain of several): as above
T10 sequence (P60568 21-153 limits assumed, one chain of several): as above
T9 sequence (P60568 21-153 limits assumed, one chain of several): as above

IC50 (read off the curve) (%pSTAT5 in CD4+ Tregs of hPBMC stimulated with hIL-2) (Human IL-2 [1]) [pM]	Kd (Human IL-2 [2]) [pM]	koff (Human IL-2 [2]) [s⁻¹]	kon (Human IL-2 [2]) [M⁻¹ s⁻¹]	Kd (cynomolgus monkey IL-2) [pM]	koff (cynomolgus monkey IL-2) [s⁻¹]	kon (cynomolgus monkey IL-2) [M⁻¹ s⁻¹]	binding result (Mouse IL-2)	Kd (Human IL-2 [3]) [pM]	koff (Human IL-2 [3]) [s⁻¹]	kon (Human IL-2 [3]) [M⁻¹ s⁻¹]	binding result (BDG17.053/hIL-2 complex)	binding result [4]	binding result (biotinylated human CD25)	binding result (BDG17.023-hIL-2 complex)	binding result (BDG17.038/hIL-2 complex)	binding result (BDG17.043/hIL-2 complex)	binding result (BDG17.054/hIL-2 complex)	binding result [5]	Binder
~1000	10.8	0.000487	4.5e+07	11.7	0.000584	4.98e+07	no binding	10.8	0.000487	4.5e+07	–	–	–	–	–	–	–	–	BDG17.069 (AU-007) (antibody, human IgG1, kappa, L234A L235A, V domains shown, Human IgG1-LALA) VH: QVQLVQSGAEVKKPGSSVKVSCKASGYSITDDLIHWVRQAPGQGLEWMGWIDPEDGETNYAQKFQGRVTLTADTSTSTAYMELSSLRSEDTAVYYCARSLDSTWIYPFAYWGQGTLVTVSS VL: DIVMTQSPDSLAVSLGERATINCKSSQSLLRRGNQKNHLAWYQQKPGQPPKLLIYDASTGQSGVPDRFSGSGSGTDFTLTISSLQAEDVAVYYCLQSYITPPTFGAGTKVEIKR
–	–	–	–	–	–	–	–	–	–	–	no binding (tested: 1000 nM)	no binding (tested: 1 uM)	no binding (tested: 1 uM)	no binding (tested: 1000 nM)	no binding (tested: 1000 nM)	no binding (tested: 1000 nM)	no binding (tested: 1000 nM)	no binding (tested: 1000 nM)	human CD25 (soluble) (receptor, UniProt P01589 22-213, looked up, Injected as soluble analyte at 1000 nM / 1 uM; also called hCD25; IL-2Rα) ELCDDDPPEIPHATFKAMAYKEGTMLNCECKRGFRRIKSGSLYMLCTGNSSHSSWDNQCQCTSSATRNTTKQVTPQPEEQKERKTTEMQSPMQPVDQASLPGHCREPPPWENEATERIYHFVVGQMVYYQCVQGYRALHRGPAESVCKMTHGKTRWTQPQLICTGEMETSQFPGEEKPQASPEGRPESETSC

From patent publication US20240287169A1 (AULOS BIOSCIENCE, published 2024)
